Data as given in patent EP1902729A1.

Target: HIF2α protein
Assay: cell-based or functional assay

Int6-ΔC (mutant in which the Int6 PINT (PCI) domain has been deleted)
expression and transcriptional activity of HIF2α: 2 fold
